Measured values: publication PMC5765006 (2018)

Target: soluble extracellular domain of human TM (Homo sapiens (Human), UniProt P07204)
Assay: competition pull-down (native Ang1 inhibits thrombin/TM co-precipitation on Ni-NTA, western blot); direct pull-down only with BowAng1; indirect readout: displacement of thrombin (5 nM) from soluble TM

soluble extracellular domain of human TM, sequence (P07204 19-515): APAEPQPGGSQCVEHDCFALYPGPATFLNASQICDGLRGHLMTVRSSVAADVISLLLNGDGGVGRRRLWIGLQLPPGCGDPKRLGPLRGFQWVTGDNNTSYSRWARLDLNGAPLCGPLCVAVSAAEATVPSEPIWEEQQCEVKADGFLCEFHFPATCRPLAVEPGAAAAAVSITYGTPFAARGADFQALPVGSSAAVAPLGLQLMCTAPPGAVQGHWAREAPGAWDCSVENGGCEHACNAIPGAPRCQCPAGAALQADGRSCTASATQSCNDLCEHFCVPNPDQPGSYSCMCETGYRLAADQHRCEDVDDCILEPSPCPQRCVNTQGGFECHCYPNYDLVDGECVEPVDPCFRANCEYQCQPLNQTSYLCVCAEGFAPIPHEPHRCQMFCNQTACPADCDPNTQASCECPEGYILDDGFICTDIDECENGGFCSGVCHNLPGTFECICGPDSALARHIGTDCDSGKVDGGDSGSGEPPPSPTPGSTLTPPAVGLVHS

B1: native human Ang1 (protein)
chain: HIGCSNQRRSPENSGRRYNRIQHGQCAYTFILPEHDGNCRESTTDQYNTNALQRDAPHVEPDFSSQKLQHLEHVMENYTQWLQKLENYIVENMKSEMAQIQQNAVQNHTATMLEIGTSLLSQTAEQTRKLTDVETQVLNQTSRLEIQLLENSLSTYKLEKQLLQQTNEILKIHEKNSLLEHKILEMEGKHKEELDTLKEEKENLQGLVTRQTYIIQELEKQLNRATTNNSVLQKQQLELMDTVHNLVNLCTKEGVLLKGGKREEEKPFRDCADVYQAGFNKSGIYTIYINNMPEPKKVFCNMDVNGGGWTVIQHREDGSLDFQRGWKEYKMGFGNPSGEYWLGNEFIFAITSQRQYMLRIELMDWEGNRAYSQYDRFHIGNEKQNYRLYLKGHTGTAGKQSSLILHGADFSTKDADNDNCMCKCALMLTGGWWFDACGPSNLNGMFYTAGQNHGKLNGIKWHYFKGPSYSLRSTTMMIRPLDF
binding result: binds
